# B1: FLAG-tagged recombinant GPBP (rGPBP) (protein)
# chain: DYKDDDDKMSDNQSWNSSGSEEDPETESGPPVERCGVLSKWTNYIHGWQDRWVVLKNNALSYYKSEDETEYGCRGSICLSKAVITPHDFDECRFDISVNDSVWYLRAQDPDHRQQWIDAIEQHKTESGYGSESSLRRHGSMVSLVSGASGYSATSTSSFKKGHSLREKLAEMETFRDILCRQVDTLQKYFDACADAVSKDELQRDKVVEDDEDDFPTTRSDGDFLHSTNGNKEKLFPHVTPKGINGIDFKGEAITFKATTAGILATLSHCIELMVKREDSWQKRLDKETEKKRRTEEAYKNAMTELKKKSHFGGPDYEEGPNSLINEEEFFDAVEAALDRQDKIEEQSQSEKVRLHWPTSLPSGDAFSSVGTHRFVQKPYSRSSSMSSIDLVSASDDVHRFSSQVEEMVQNHMTYSLQDVGGDANWQLVVEEGEMKVYRREVEENGIVLDPLKATHAVKGVTGHEVCNYFWNVDVRNDWETTIENFHVVETLADNAIIIYQTHKRVWPASQRDVLYLSVIRKIPALTENDPETWIVCNFSVDHDSAPLNNRCVRAKINVAMICQTLVSPPEGNQEISRDNILCKITYVANVNPGGWAPASVLRAVAKREYPKFLKRFTSYVQEKTAGKPILF
# B2: 22-25-kDa conformers of the native human α3(IV)NC1 domain (other)
# chain: GLKGKRGDSGSPATWTTRGFVFTRHSQTTAIPSCPEGTVPLYSGFSFLFVQGNQRAHGQDLGTLGSCLQRFTTMPFLFCNVNDVCNFASRNDYSYWLSTPALMPMNMAPITGRALEPYISRCTVCEGPAIAIAVHSQTTDIPPCPHGWISLWKGFSFIMFTSAGSEGTGQALASPGSCLEEFRASPFLECHGRGTCNYYSNSYSFWLASLNPERMFRKPIPSTVKAGELEKIISRCQVCMKKRH
# modifications: phosphoserine, highest Ser(P) content among the conformers; sites not given
# notes: also called 22-25-kDa polypeptides; 22-kDa conformer
# Key:
# GPpep1Ala^9 = target: T1, GPpep1Ala^9
# T1 chain: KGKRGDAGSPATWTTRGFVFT
# GPpep1 = target: T2, GPpep1
# T2 chain: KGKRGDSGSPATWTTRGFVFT
# [1] = target: T3, Human recombinant GP antigen (rGP) produced in 293 cells
# T3 chain: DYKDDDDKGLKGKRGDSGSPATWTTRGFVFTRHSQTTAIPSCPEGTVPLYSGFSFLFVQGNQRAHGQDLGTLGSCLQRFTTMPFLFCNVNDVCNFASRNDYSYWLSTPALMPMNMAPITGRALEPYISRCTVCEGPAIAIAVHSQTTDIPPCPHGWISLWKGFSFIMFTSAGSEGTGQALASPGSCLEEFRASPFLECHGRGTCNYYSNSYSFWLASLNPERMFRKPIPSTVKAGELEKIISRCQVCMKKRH
# [2] = target: T4, alkaline phosphatase-treated fα3
# T4 chain: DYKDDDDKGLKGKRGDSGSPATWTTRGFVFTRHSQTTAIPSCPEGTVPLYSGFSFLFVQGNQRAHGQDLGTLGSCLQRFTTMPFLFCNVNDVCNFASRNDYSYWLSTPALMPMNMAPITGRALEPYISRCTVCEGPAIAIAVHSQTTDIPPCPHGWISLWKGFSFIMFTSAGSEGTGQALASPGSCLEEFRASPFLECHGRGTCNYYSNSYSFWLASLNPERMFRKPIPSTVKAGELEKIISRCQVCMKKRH
# [3] = target: T5, native bovine α3(IV)NC1 domain (bovine GP antigen), Q28084
# T5 chain: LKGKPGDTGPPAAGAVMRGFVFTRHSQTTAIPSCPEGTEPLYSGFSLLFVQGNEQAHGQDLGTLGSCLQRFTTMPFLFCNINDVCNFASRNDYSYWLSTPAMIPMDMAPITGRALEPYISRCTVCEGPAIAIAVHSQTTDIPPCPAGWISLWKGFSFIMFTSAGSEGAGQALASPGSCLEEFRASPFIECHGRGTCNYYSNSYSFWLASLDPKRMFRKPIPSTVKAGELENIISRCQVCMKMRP
# [4] = target: T6, native human α3(IV)NC1 domain (GP antigen) from renal cortex, monomer fraction of the hexamer
# T6 chain: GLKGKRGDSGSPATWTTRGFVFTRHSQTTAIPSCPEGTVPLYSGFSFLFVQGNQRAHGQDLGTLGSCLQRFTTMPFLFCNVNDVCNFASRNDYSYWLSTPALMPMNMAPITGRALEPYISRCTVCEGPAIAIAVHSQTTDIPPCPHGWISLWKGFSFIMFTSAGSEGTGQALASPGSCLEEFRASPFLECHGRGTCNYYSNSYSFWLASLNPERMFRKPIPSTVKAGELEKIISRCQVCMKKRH
# [5] = target: T7, prokaryotic human recombinant α3(IV)NC1
# T7 chain: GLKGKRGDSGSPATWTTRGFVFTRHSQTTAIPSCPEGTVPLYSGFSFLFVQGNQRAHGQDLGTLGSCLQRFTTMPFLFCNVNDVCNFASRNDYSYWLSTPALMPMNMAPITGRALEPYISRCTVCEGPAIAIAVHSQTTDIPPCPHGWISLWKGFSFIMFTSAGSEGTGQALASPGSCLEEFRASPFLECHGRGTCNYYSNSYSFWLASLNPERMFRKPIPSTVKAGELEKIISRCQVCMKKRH
# [6] = target: T8, rMBP, recombinant 21 kDa human myelin basic protein, P02686
# T8 chain: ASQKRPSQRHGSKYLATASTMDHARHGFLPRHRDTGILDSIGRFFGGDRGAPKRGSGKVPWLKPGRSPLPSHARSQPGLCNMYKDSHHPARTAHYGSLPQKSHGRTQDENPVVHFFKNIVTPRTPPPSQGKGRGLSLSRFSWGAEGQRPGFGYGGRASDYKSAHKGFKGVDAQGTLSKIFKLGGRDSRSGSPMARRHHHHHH
# [7] = target: T9, rMBPΔII, recombinant 18.5 kDa human myelin basic protein
# T9 chain: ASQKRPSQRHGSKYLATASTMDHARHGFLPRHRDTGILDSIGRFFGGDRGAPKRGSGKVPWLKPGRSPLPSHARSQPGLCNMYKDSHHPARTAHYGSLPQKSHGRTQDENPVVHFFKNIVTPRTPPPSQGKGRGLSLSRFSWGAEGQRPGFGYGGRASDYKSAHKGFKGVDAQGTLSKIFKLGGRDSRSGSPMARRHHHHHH
# [8] = target: T10, β-galactosidase-derived fusion protein of clone HeLa1 containing the N-terminal 150 residues of GPBP (human, UniProt Q5R6M6 1-150 (Pongo abelii entry)); assay: filter screen of λ-gt11 expression libraries with GPpep1, detected with M3/1A
# T10 construct: also called HeLa1 fusion protein; not shown: β-galactosidase part of the λ-gt11 fusion
# T10 sequence: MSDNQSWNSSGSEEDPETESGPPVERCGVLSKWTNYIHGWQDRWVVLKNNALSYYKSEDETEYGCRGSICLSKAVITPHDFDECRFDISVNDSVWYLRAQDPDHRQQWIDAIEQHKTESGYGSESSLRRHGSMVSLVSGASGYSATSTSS
# Procedure: Isolation and characterization of cDNA clones encoding human GPBP-Several human λ-gt11 cDNA expression libraries (eye, fetal and adult lung, kidney and HeLa S3, from CLONTECH) were probed for cDNAs encoding proteins interacting with GPpep1. Nitrocellulose filters (Millipore) prepared following standard immunoscreening procedures were blocked and incubated with 1–10 nmoles per ml of GPpep1 at 37° C. Specifically bound GPpep1 was detected using M3/1A monoclonal antibodies (7). A single clone was identified in the HeLa-derived library (HeLa1). Specificity of fusion protein binding was confirmed by similar binding to recombinant eukaryotic human GP antigen. The EcoRI cDNA insert of HeLa1 (0.5-kb) was used to further screen the same library and to isolate overlapping cDNAs. The largest cDNA (2.4-kb) containing the entire cDNA of HeLa1 (n4') was fully sequenced.
# [9] = target: T11, FLAG-tagged recombinant GPBP (rGPBP) (human, UniProt Q9Y5P4 1-624, phosphoserine, phosphothreonine and phosphotyrosine present, sites not given); assay: far-Western on in-blot renatured human monomers, 30 ng/µl recombinant GPBP, Mab14 detection
# T11 construct: Made in Pichia pastoris or 293 cells; also called FLAG-n4′
# T11 sequence: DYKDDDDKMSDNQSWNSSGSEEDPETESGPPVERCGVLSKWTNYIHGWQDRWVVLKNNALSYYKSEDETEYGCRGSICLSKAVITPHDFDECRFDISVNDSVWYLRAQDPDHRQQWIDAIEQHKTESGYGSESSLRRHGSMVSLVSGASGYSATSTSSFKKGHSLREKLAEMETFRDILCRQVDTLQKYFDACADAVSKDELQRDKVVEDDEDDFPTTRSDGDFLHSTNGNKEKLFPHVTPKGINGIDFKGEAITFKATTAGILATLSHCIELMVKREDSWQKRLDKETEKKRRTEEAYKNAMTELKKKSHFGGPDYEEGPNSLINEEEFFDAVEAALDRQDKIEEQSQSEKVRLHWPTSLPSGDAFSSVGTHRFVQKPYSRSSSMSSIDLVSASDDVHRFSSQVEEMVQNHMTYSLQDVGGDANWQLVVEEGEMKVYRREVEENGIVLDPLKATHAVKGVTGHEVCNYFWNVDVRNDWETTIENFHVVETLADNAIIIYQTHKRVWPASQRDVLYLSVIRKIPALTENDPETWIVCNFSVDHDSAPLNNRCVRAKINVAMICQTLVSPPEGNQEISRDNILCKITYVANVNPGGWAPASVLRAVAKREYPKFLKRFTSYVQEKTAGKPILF
# Procedure: Physical, chemical and immunochemical methods. Lnunoblot studies were performed as described in Example 4. For far-Western, after protein transfer the membrane was blocked with non-fat milk, incubated with 30 ng/μl of fα3 or recombinant GPBP and the bound recombinant material detected with α-FLAG or Mab14, respectively.
binder,measurement,setting,value
B1,"^32P incorporation, in vitro phosphorylation",GPpep1Ala^9,The lower ^32P incorporation displayed by GPpep1Ala9 when compared with GPpep1
same,"^32P incorporation, in vitro phosphorylation",GPpep1,Affinity-purified rGPBP phosphorylates all human-derived material to a different extent
same,"^32P incorporation, in vitro phosphorylation",[1],Affinity-purified rGPBP phosphorylates all human-derived material to a different extent
same,monomeric Mab3-reactive material after oligomerization assay,[2],the addition of GPBP to the phosphatase-treated samples resulted in a further reduction in the levels of monomeric material reactive with Mab3
same,"^32P incorporation, in vitro phosphorylation",[3],no appreciable ^32P-incorporation was observed in the bovine-derived substrate
same,"conformers and oligomers after DTT consumption, Western blot",[3],during DTT consumption GPBP catalyzed specific conformational isomerization reactions over the 27-kDa conformer
same,"^32P incorporation, in vitro phosphorylation",[4],Affinity-purified rGPBP phosphorylates all human-derived material to a different extent
same,"disruption of disulfide-based aggregates, Western blot",[5],"GPBP and, to a lesser extent GPBPΔ26 disrupted disulfide-based high molecular weight aggregates characteristic of recombinant material representing human α3(IV)NC1 produced in bacteria"
same,"^32P incorporation, in situ phosphorylation on blot",[6],GPBP preferentially phosphorylated MBP
same,"^32P incorporation, in situ phosphorylation on blot",[7],little phosphorylation of MBPΔII was observed
KGKRGDSGSPATWTTRGFVFT [GPpep1],binding result,[8],binds
B2,binding result,[9],binds
